Measurements: publication PMC5435347

Biological target: YFP-MKT1 (Trypanosoma brucei) (UniProt Q587E3)
Test: co-IP; extracts of bloodstream-form trypanosomes immunoprecipitated with anti-GFP (GBP beads) for YFP-MKT1, Western blot for V5 or myc; 100-150 mM NaCl, 2 h at 4°C; with or without RNase; control cells without YFP-MKT1

Chain of UniProt Q587E3 (Q587E3 whole entry): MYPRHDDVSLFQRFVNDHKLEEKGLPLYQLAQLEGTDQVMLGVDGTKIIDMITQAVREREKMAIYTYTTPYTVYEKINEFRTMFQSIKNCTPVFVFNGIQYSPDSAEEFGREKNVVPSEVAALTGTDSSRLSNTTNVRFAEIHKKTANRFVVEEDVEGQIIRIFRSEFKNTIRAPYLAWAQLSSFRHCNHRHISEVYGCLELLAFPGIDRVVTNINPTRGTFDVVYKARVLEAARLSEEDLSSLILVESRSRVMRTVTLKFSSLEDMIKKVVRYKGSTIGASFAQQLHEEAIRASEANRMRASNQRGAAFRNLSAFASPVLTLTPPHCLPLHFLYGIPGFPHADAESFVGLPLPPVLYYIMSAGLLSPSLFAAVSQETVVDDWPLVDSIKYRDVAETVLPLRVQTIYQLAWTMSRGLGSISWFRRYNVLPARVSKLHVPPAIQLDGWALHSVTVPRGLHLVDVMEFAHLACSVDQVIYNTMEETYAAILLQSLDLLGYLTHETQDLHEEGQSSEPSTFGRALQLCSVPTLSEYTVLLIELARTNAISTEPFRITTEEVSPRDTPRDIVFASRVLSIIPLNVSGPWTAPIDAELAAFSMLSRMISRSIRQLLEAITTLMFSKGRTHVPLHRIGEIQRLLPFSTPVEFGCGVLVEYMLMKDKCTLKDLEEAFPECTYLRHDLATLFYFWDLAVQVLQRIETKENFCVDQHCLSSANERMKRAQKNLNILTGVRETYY

proportion pulled down	Substance
< 1%	V5-ZC3H32 (natural protein)
< 1%	ZC3H32-myc (natural protein)
